Here are results for 41 sequences from the nanobody polyreactivity screen of Harvey et al. (2022).

The nature of this series: yeast display, Sf9 membrane polyspecificity reagent, FACS + sequencing; frameworks hold sequencing errors. The method, boiled down: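 Galactose-induced (36–48 hours) yeast carrying a synthetic nanobody display library were exposed to 10% biotinylated, detergent-solubilized Sf9 membrane reagent at 4 °C for 1 hour. FACS followed streptavidin microbead enrichment, using low and high (top ~1%) gates for expression (anti-HA) and reagent binding (streptavidin). Colony PCR, MiSeq 2 × 250 sequencing and CDR-length filtering followed. Labels for polyreactivity reflect the gate of origin.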
With “QVQLVESGGGLVQAGGSLRLSCAAYGLIFGHYAMGWYRQEPGKERELVAAITTRGSSTYYADSVKGRFTISRDNAKNTVYLQMNSLKPEDTAVYYCNAKLVYGTTYKFDNWGQGTQVTVSS”, the “polyreactivity (PSR sort gate)” value is “high polyreactivity”.

Take “QVQHVETGGGLVQAGGSLRLSCAASGSTFVLYAKGWYRQAPGKERELVAAITWSGDDTYYADSVKGRFTISRDNAKNTVYLQMISLKPEDTAVYYCAAAYAYWGQGTQVTVSS”: the “polyreactivity (PSR sort gate)” value is “low polyreactivity”.

Take “QVQLVESGGGLVQAGGSLRLSCAASGRNYWVYAMGWYREAPGKERELVASIDSGSRTTYADSVKGRFTISRDNAKNTVYLQMISLKQEDTAVYYSATSSYTYSPRVWYRWRRDYWGQGTQVNVSS”: the “polyreactivity (PSR sort gate)” value is “high polyreactivity”.

As to “QVQLVESGGGLVQAGGSLRLSCAASGSIFLYYAMGWYRQAPGKERELVAAITGGGGTNYADSVKGRFTISRDNAKNTVYLQMNSLKPEDTAVYYCAADPSGQFPYSYYNYDYDYWGQGTQVTVSS”, the “polyreactivity (PSR sort gate)” value was “low polyreactivity”.

“QGQLVESGGGLVQAGASLRLSCAASGFIFAHYTMGWYRQAPGKARELVAAITRAGGSTFYADSVKGRFTISRDNAKNTVYLQRNSLKPEDTAVYYCNRGNRWNFDSWGQGTQVTVSS”: the “polyreactivity (PSR sort gate)” value is given as “high polyreactivity”.

Consider “QVQLVESGGGLVHAGGSLRLSCAASGSNFRYNAMGWYRQAPGKEREFYADSVKGRFTISRDNAKKTVYLQMNSLKPEDTAVYYCNATWYLWYWHDMDYWGQGTQGTVSS”, for which the “polyreactivity (PSR sort gate)” value is recorded as “low polyreactivity”.

As for “QVQLVESGGGLVQAGGSLRISCAASGRTFFFNAMGWYRQAPGKERELVAAISRTGRTNYADSVKGRFTISRDHAKNTVYLQMNSLKPEDTAVYYCAKTSYYLFGYWGHGTQVTVSS”, the “polyreactivity (PSR sort gate)” value is listed as “high polyreactivity”.

As for “QVQLVESGGGLVQAGGSLRLSCAASGSTFRNYAMGWYRQAPGKERELVAAITKRGGTTYYADSVKGRFTISRDNAKNTCYLQMNSLKPEDTAVYYCATGYNSSPFDYWGQGTQVTVSS”, the “polyreactivity (PSR sort gate)” value is “high polyreactivity”.

“QVQLVESGGGLVQAGGSLRLSCAASGGTFYSYAMGWYRQAPGIEREVVAAISRRGGSTYYADSVKGRFTISRDNAKNTVYLLMNSLKPEDTAVYFCNTYIYQVRDDYWGQGTQVTVSS”: the “polyreactivity (PSR sort gate)” value is “high polyreactivity”.

“QVQLVESGGGLVQAGGSLRLSCAASGGTFVYYTMGWYRQAPGKERELVAAITQSGSTTYYADSVKGRFTISRDNAKNTVYLQMNSLKPEDTAVYYCARRYGTWNAYDYWGQGTQVTVSS”: the “polyreactivity (PSR sort gate)” value is listed as “low polyreactivity”.

On to “QVQLVESGGRLVQAGGSIRLSCAASGSIFVQYAMGWYRPAPGKERELVAAIDFSDTSTYYADSVKGLFTISRDNAKITVYLQMNSLKPEDTAVYYCAAEEDSPSRSAIAVEEYLGQGTQVTVSS”, for which the “polyreactivity (PSR sort gate)” value is “low polyreactivity”.

As for “QVQLVESGGGLVQAGGSLRLSCAASGFIFYFYTMGWYRQAPGKERELVAGITWLDGSTYYADSVKGRFTISRDNAKNTVYLQMNSLKPEDTAVYYCAVDYDLVVSPYYYWGQGTQVTVSS”, the “polyreactivity (PSR sort gate)” value is given as “low polyreactivity”.

For the sequence “QVQLVESGGGLVQAGGSLRLSCPASGRILWFYAMGWYRQAPGKERELVAAISWNGGSTYYADSVKGRFTISRDNAKNTVYLQMNSLKPEDTAVYYCNKDPSVEWWFDYWGQGTQVTVSS”, the “polyreactivity (PSR sort gate)” value was “low polyreactivity”.

As for “QVQLLESGGGLDQARGSLRLSCAASGRTFYGYGMGWSRQAPGKEREFVAAISYSGGSTYYADSVKGRFTISRDNAKNTVYLQMNSLKPEDTAVYYSAARNRGSCYYYWGQGTQVTVSS”, the “polyreactivity (PSR sort gate)” value is reported as “high polyreactivity”.

Regarding “QVQLVESGGGLVQAGGRLRLSCAASGSTFWYYAMGWSRQAPGKEREFVAAITTGGSSTYYADSVKGRFTISRDNAKNTVYLQMNSLKPEDTAVYYCAARGWRSPYAYYYWGQGTQVTVSS”, the “polyreactivity (PSR sort gate)” value is recorded as “high polyreactivity”.

“QVQLVESGGGLVQAGGSLRLSCAASGSIFGPYAMGWYRQAPGKERELVAAISNGGTTYYADSVKGRFTISRDNAKYTVYLQMNSLKPEDTAVYYCNAEQYLYYILGNYDYWGQGTQVTVSS”: the “polyreactivity (PSR sort gate)” value is “low polyreactivity”.

Consider “QVQLVESGGGLVQAGGSLRLSCAASGFIFRYYTMRWYRQAPGKERELVAVITSGGTTYYADSVKGRFTISRDNAMNTVYLQMNSLKPEDTAVSYCAADYRPRLYGVGVDYWGQGTQVTVSS”, for which the “polyreactivity (PSR sort gate)” value is on record as “low polyreactivity”.

As to “QVQLVESGGGLVQAGGSLRLSCAASGRTIYRNAMGWYRQAPGKERELVAAISRSGGRTFYAYSVKGRFTISRDNAKNTVYLQMNSLKPEDTEVYYCADESYGVRLPSGYWGQGTQVTVSS”, the “polyreactivity (PSR sort gate)” value is on record as “high polyreactivity”.

For the sequence “QVQLVESGGGLVQAGGSLRLSCAASGSTFYVYAMGWYRQAPRKERELVAAIDGSTGSTYYADSVKGRFTISRDNAKNTVYLQMNSLKPEDTAVYYCNADYYYEVDSWGQGTQVTVSS”, the “polyreactivity (PSR sort gate)” value was “low polyreactivity”.

For “QVQLVESGGGLVQAGGSLRLSCAASGSIFSYNAMGWYRQAPGKERELFAAITWSGGSTYYADSVKGRFTISRDNAKNTVYLQMNSLKPEDTAVYYCAAKGGYSTGRPTYTKFNYWGQGTQVTVSS”, the “polyreactivity (PSR sort gate)” value is recorded as “high polyreactivity”.

For the sequence “QVQLVESGGGLVQAGGSLRLSCAASGSTFYSYAMGWYRQAPGKERELVADITDSGGSTYYADSVKGRFTISRDNAKNTVYLQMNSLKPEDTALFYCNAAYYIWYNKVSSTYGIHGMDYWGQGTQVTVSS”, the “polyreactivity (PSR sort gate)” value is “high polyreactivity”.

As to “QVQLVESGGGLVQAGGSLRLSCAASGSTFFSNTMGWYRQAPGKERELVAAITDSGTSTYYADSVKGRFTISRDNAKNTVYLQMNSLKPEDTAVYYCAAYPSGWYDYWGQGTLVTVSS”, the “polyreactivity (PSR sort gate)” value is on record as “low polyreactivity”.

Take “QVQLVESGGGLVQAGGSLRLSCAASGSIVYRYSMGWYRQAPGKERELVAGITFGAGTYYADSVKGRFTISRDNAKNTVYLQMNSLKPEDTAVYYCNAIHLPRHRDYWGQGTQVTVSS”: the “polyreactivity (PSR sort gate)” value is listed as “low polyreactivity”.

As for “QVQLQERGGGLVQAGGSLRLTCAASGTISDSGLMGWYRQAPGKERELVAGISSGGITNYADSVKGRFTISRDNANNTVYLQMNSLKPEDNAVFWGQGSQVTVSS”, the “polyreactivity (PSR sort gate)” value is reported as “low polyreactivity”.

Consider “QVQLLESGGGLVQAGGSLRLSCAASGLTICYYAMGWYRQAPGKEREYVAAITSRGGDTYYADSVKGRFTISRDNAKNTVYLEMNSLKPEDTAVYYCAVRPRYYGTYRYYYWGQGTQVTVSS”, for which the “polyreactivity (PSR sort gate)” value is given as “high polyreactivity”.

As to “QVQLVESGGWLVQAGGSLRLSCAASGSTFEDYVMGWYRQAPGTEREFVAAISRGSGSTYYADSVKGRFTISRDNAKNTVFLQMNSLKPEDTAVYYCAARSQLGYRTRYPTYYWGQGTQVTVSS”, the “polyreactivity (PSR sort gate)” value is given as “high polyreactivity”.

On to “QVQLVESGGGLVQAGGSLRLSCAASGSIFGGYAMGWYRQAPGKEREWVAAITSSGGRTYYADSVKGRFTISRDNAKNTVYLQMNSLKPEDTAVYYCAARYTRWRYNYKDYDYWGQGTQVTVSS”, for which the “polyreactivity (PSR sort gate)” value is “high polyreactivity”.

In the case of “QVQLVESGGGLVQAGGSLRLTCAASVFTWSYAMVWDRHATGKERELVATISDGVSTNYSDSVKGRFTISRDNAKNSVYLQMNSLKPEDTAVYYCAVRVSGPRGYDYEYWGQGTQVTVSS”, the “polyreactivity (PSR sort gate)” value is reported as “low polyreactivity”.

As to “QVQLVESGGGLVQAGGSLRLSCAASGRTFYSYVMGWYRQAPGKERELVAAIRSSGRTYYADSVKGRFTISRDNAKNTVYLQMNRLTPEDTAVYYCAAYAWVSGSLYDSWGQGTQVTVSS”, the “polyreactivity (PSR sort gate)” value is listed as “high polyreactivity”.

Consider “QVQLVESGGGLVQAGGSLRLSCAASGSTFGGNAMGWYRPAPGKERELVAGITTGGTTNYADSVKGRFTISRDNAKNTVYLQMISLIPEDTAVYYCAAGPSSSLTLYDYWGQGTQVTVSS”, for which the “polyreactivity (PSR sort gate)” value was “low polyreactivity”.

Consider “QVQLVESGGGLVQAGGSRRLSCAASGNTIYFYVMGWYRQAPGKERELVAAISSSGGSTYYADSVKGRFTISRDNAKNTVYLQMNSLKPEDTSVYYCAAEMYLSRLRYWYDYWGQGTQVTVSS”, for which the “polyreactivity (PSR sort gate)” value is reported as “high polyreactivity”.

In the case of “QVQLVESGGGLVQAGGSLRLSCAASGSIFNLYAMGWYRQAPGKERELVAAIRWSGGSTYYADSVKGRFTISRDNAKNTVYLKMKSMKPEDTAVYYCNAEWKSYRVPKFEYWGQGTQVTVSS”, the “polyreactivity (PSR sort gate)” value was “low polyreactivity”.

Turning to “QVQLVESGGGLVQAGGSLRLSCAASGFTFTYNAMGWYRQAPGKERELVARIRWSTGSTYYADSVKGRFTISRDNAKKTVYLQMNSLKPEDTAVYYCAADGYGWGGSGWQYPHGFGYWGQGTQVTVSS”, the “polyreactivity (PSR sort gate)” value was “low polyreactivity”.

As to “QVHLVESGGGLVHAGGSIRLSCAASGSIFGYYAMGWYRQAPGKEREFVAAITWNGGSTYYADSVKGRFTISRDNAKNTVYLEMISLKPEDTAVYYCARTSYARFRNGWTYDHWGQGTQVSVSS”, the “polyreactivity (PSR sort gate)” value was “low polyreactivity”.

On to “QVQLEESGGGLVQAGGSLRLSCAASGSTIRYNAMGWSRQAPGKERELVAGISVRGGSTYYADSVKGRFTISRDNAKNTVYLQMNSLKPEDTAVYYCATRSPYSYPNLYYWGQGTQVTVSS”, for which the “polyreactivity (PSR sort gate)” value is given as “high polyreactivity”.

With “QVQLVESGGGLVQAGGSRRLSCAASGYSLRIYAMGWYRQAPGTEMELVAAISRSGGRTFYADSVKGRFTISRDNAKNTVFLQMNSLKQEDTAVYYCAADPRCYDTGRMDYWGQGTQVTVSS”, the “polyreactivity (PSR sort gate)” value is “high polyreactivity”.

Take “QVQLVESGGGLVQAGGSLRLSCAASGSTFVGYAMRGYRQAPGKERELVADIDSIGGSTYYADSVKGRFTISRDNAKNTVYLQMNSLKPEDTAVYYCAARRFDTALVLYDYWGQGTQVTVSS”: the “polyreactivity (PSR sort gate)” value is reported as “low polyreactivity”.

For the sequence “QVQLVESGVGLVQAGGSLRLSCAASGFISVNNAMGWYRQAPGKERELVAAITDTDDSTYADSVKGRFTISRDNAKNTVYLQMNSLKPEDTAVYYCAAGIIYSNEPNITSYDYWGQGTQVTVSS”, the “polyreactivity (PSR sort gate)” value is “low polyreactivity”.

As for “QFQLVESGGGLVQAGGSLRLSCAASGRTFAWNAMGWYRQAPGKERELVAAISYNGGRTYYADSVKGRFTISRDNAKNTVYFQMNSLKPEDTAVYYCAAQRYGYWGQGTQVTVSS”, the “polyreactivity (PSR sort gate)” value was “high polyreactivity”.

In the case of “QVQLVESGGGLVQAGGSLRLSCAASGSTFHLNAMGWYIQAPGKERELVAAISLSGGSTYYADSVKGRFTISRDHAKNTVYLQMNSLKPEYTAVYYCAAEQWYDNYLEYDYWGQGTEVTVSS”, the “polyreactivity (PSR sort gate)” value was “high polyreactivity”.

Consider “QVQLEESGGGLVQAGGSLRLSCAASGSIFYSNAMGWYRQAPGKERELVAAISVSGVSTYYADSVKGRFTISRDNAKNTVYLQMNSLKPEDTAVYYCAAQYVTRGLYLVAFFSYDYWGQGTQVTVSS”, for which the “polyreactivity (PSR sort gate)” value is “low polyreactivity”.
